Consider one molecule from patent publication US20100034737A1 (published 2010).

This assay addresses T1, mouse JAM-C on the surface of GL261-233R (JAM-C rescued) and GL261-233RC (JAM-C knock-down) mouse glioma cells (mouse, UniProt Q9D8B7 30-310).
T1 construct: whole, on cells; also called JAM-C on the surface of glioma cells
T1 sequence (looked up): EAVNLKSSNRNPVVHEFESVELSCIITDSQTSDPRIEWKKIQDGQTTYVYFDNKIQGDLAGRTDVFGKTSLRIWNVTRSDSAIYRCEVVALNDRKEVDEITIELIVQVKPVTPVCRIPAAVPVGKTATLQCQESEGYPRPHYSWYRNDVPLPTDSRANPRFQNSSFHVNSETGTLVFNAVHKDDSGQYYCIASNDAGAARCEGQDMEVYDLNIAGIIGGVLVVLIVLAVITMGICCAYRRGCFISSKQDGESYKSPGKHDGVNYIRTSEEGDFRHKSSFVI
Kind of assay: flow cytometry of sJAM-B-Fc on GL261-233RC and GL261-233R cells (FIG. 22 A, B) and c-Src ELISA. The protocol:
Cells were then washed with PBS, 0.2% FCS and 0.01% azide and analysed.
Amounts of total c-Src protein and of active phosphorylated-c-Src were quantified using FACE c-Src ELISA kit (Active Motif, CA, USA). […] At day 2, cells were incubated 30 min on ice and then 20 min at 37° C. with recombinant mouse JAM-B/Fc chimera antibody (R&D, MN, USA) at a final concentration of 5 μg/ml. Cells were then fixed and analysed with c-Src ELISA following the manufacturer's instructions (colorimetric Assay for adherent cells).
On the technique in general: Flow cytometry measures light scatter and fluorescence of single cells or particles in a stream.

B1: Recombinant Mouse JAM-B/Fc Chimera (Fc fusion, UniProt Q9JI59 29-236, looked up)
chain: FSASKDHRQEVTVIEFQEAILACKTPKKTTSSRLEWKKVGQGVSLVYYQQALQGDFKDRAEMIDFNIRIKNVTRSDAGEYRCEVSAPTEQGQNLQEDKVMLEVLVAPAVPACEVPTSVMTGSVVELRCQDKEGNPAPEYIWFKDGTSLLGNPKGGTHNNSSYTMNTKSGILQFNMISKMDSGEYYCEARNSVGHRRCPGKRMQVDVLN
notes: extracellular domain; Bought from R&D; also called sJAM-B-Fc chimera; soluble JAM-B; not shown: Fc part, detected with anti-human Fc antibody
As to B1, the binding result was “binds”.
